Experimental data reported in paper PMC7318136.

Tests used:
Assay in all cases: NMR
Details in all cases: 300 K; not stated; 20 mM sodium phosphate; phosphoric acid (20 %) added for lower pH, NaOH (1 M) for higher pH; samples dialysed overnight; folded isolated PsbO-β, 9-14 mg/mL, free of PSII partners
[1] = target: Glu54 (UniProt position 80, …)
[2] = target: Asp79 (UniProt position 105, …)
[3] = target: Glu84 (UniProt position 110, …)
[4] = target: Asp205 (UniProt position 231, …)
[5] = target: Glu64 (UniProt position 90, …)
[6] = target: Asp33 (UniProt position 59, …)
[7] = target: Glu74 (UniProt position 100, …)
[8] = target: Asp23 (UniProt position 49, …)
[9] = target: Glu210 (UniProt position 236, …)
[10] = target: Asp99 (UniProt position 125, …)
[11] = target: Glu145 (UniProt position 171, …)
[12] = target: Glu232 (UniProt position 258, …)
[13] = target: Asp24 (UniProt position 50, …)
[14] = target: Asp90 (UniProt position 116, …)
[15] = target: Glu244 (UniProt position 270, FYASIEPA---)
[16] = target: Glu114 (UniProt position 140, …)
[17] = target: Glu216 (UniProt position 242, …)
[18] = target: Asp102 (UniProt position 128, …)
[19] = target: Glu218 (UniProt position 244, …)
[20] = target: Glu98 (UniProt position 124, …)
[21] = target: Asp141 (UniProt position 167, …)

B1: PsbO-β (β-barrel construct of photosystem II manganese-stabilizing protein PsbO) (Thermosynechococcus elongatus; deletion of 1-15; deletion of 55-63 (replaced … (protein)
chain: MNHKCPTLDDTARGAYPIDSSQTYRIARLCLQPTTFLVKENGEFVPTKLVTRETTSLDQIQGELKVNSDGSLTFVEEDGIDFQPVTVQMAGGERIPLLFTVKNLVASTQPNVTSITTSTDFKGEFNVNGTKGQISLNVAKVDGRTGEIAGTFESEQLSNGHEVKIQGVFYASIEPA
For B1, the pKa [1] was 4.47±0.06, the pKa [2] was <2.5 and the pKa [3] was 4.64±0.07. It also gave a pKa [4] of 3.45±0.09, a pKa [5] of 4.17±0.04 and a pKa [6] of 3.47±0.05. It also gave a pKa [7] of 3.37±0.05, a pKa [8] of 3.41±0.05 and a pKa [9] of 2.66±0.12. For the same protein, the pKa [10] was <5, the pKa [11] was 4.52±0.04 and the pKa [12] was 4.20±0.10. It also gave a pKa [13] of 3.06±0.03, a pKa [14] of 1.56±0.14 and a pKa [15] of 4.97±0.08. For the same protein, the pKa [16] was 3.81±0.08, the pKa [17] was 3.91±0.10 and the pKa [18] was >7. For the same protein, the pKa [19] was 5.13±0.07, the pKa [20] was 4.99±0.04 and the pKa [21] was 4.89±0.03.
